Assay results as given in patent US20040120923A1.

Columns and labels:
IL-18 (human) = IL-18 (human) (UniProt Q14116); assay: cell-based or functional assay
IL-18BP (human) = IL-18BP (human) (UniProt O95998); assay: cell-based or functional assay
Chain of IL-18BP (human) (O95998 31-194): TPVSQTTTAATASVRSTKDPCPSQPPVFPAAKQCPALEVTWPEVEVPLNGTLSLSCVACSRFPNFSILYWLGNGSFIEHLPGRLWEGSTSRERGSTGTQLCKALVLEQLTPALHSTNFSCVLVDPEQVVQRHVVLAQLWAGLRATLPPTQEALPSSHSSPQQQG

Chain of IL-18 (human) (Q14116 37-193 limits assumed): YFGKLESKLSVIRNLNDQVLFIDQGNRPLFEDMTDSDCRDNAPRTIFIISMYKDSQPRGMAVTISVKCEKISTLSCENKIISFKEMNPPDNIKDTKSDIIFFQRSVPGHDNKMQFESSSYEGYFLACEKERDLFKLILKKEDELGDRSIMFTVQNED

| activity of IL-18 (IFNγ release by NKO cells, % of IL-18 25 ng/ml plus IL-12 without IL-18BP or IL-1F7b) at 3.12 ng/ml of IL-18BP, without IL-1F7b (IL-18 (human)) [%] | activity of IL-18 (IFNγ release by NKO cells, % of IL-18 25 ng/ml plus IL-12 without IL-18BP or IL-1F7b) at 6.25 ng/ml of IL-18BP, without IL-1F7b (IL-18 (human)) [%] | activity of IL-18 (IFNγ release by NKO cells, %) at 3.12 ng/ml of IL-18BP with mature IL-1F7b 250 ng/ml (IL-18BP (human)) [%] | activity of IL-18 (IFNγ release by NKO cells, %) at 6.25 ng/ml of IL-18BP with mature IL-1F7b 250 ng/ml (IL-18BP (human)) [%] | further decrease in activity of IL-18 at 3.12 ng/ml of IL-18BP with mature IL-1F7b (IL-18BP (human)) [%] | further decrease in activity of IL-18 at 6.25 ng/ml of IL-18BP with mature IL-1F7b (IL-18BP (human)) [%] | Substance |
| --- | --- | --- | --- | --- | --- | --- |
| 59 | 76 | – | – | – | – | IL-18BP (from UniProt O95998 31-194) (receptor) |
| – | – | 40 | 55 | 19 | 21 | mature IL-1F7b (N-terminus E21) (from UniProt Q9NZH6 21-218) (ligand) |
